Assay results: the supplement of paper PMC10567573

B1: ANKRD17 (parent)
chain: EVLRRLTSSVSCALDEAAAALTRM

Variants of: B1
Experiment: protein stability index of a GFP-peptide fusion (GPS, HEK-293T) (PSI 1-6); higher = more stable
Settings: c terminus: a fixed tail appended
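Also: lentivirally expressed fusions sorted by FACS into six bins by GFP to DsRed ratio, PSI derived from sequencing read proportions per bin multiplied by bin number.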

Variant	protein stability index
EVLRRLTSSVSCALDEAPAALTRM [A18P]	2.72
EVLRRLTSSVSCALDEAFAALTRM [A18F]	1.94
EVLRRLTSSVSCAADEAAAALTRM [L14A]	2.23
EVLRRLTSSVSCASDEAAAALTRM [L14S]	2.72
EVLRRLTSSVSCAFDEAAAALTRM [L14F]	1.23
EVLRRLTSSVSCANDEAAAALTRM [L14N]	2.11
EVLRRLTSSVSCADDEAAAALTRM [L14D]	1.94
EVLRRLTSSVSCAVDEAAAALTRM [L14V]	1.77
EVLRRLTSSVSCAYDEAAAALTRM [L14Y]	2.27
EVLRRLTSSVSCAIDEAAAALTRM [L14I]	2.22
EVLRRLTSSVSCAEDEAAAALTRM [L14E]	3.61
EVLRRLTSSVSCATDEAAAALTRM [L14T]	2.77
EVLRRLTSSVSCAKDEAAAALTRM [L14K]	1.79
EVLRRLTSSVSCACDEAAAALTRM [L14C]	2.2
EVLRRLTSSVSCAQDEAAAALTRM [L14Q]	2.48
EVLRRLTSSVSCAMDEAAAALTRM [L14M]	2.81
EVLRRLTSSVSCAWDEAAAALTRM [L14W]	1.81
EVLRRLTSSVSCARDEAAAALTRM [L14R]	1.57
EVLRRLTSSVSCAPDEAAAALTRM [L14P]	1.93
EVLRRLTSSVSCAHDEAAAALTRM [L14H]	2.13
EVLRRLTSSVSCALDEEAAALTRM [A17E]	2.24
EVLRRLTSSVSCALDELAAALTRM [A17L]	2.34
EVLRRLTSSVSCALDEDAAALTRM [A17D]	1.46
EVLRRLTSSVSCALDEMAAALTRM [A17M]	1.85

Variant	protein stability index
EVLRRLTSSVSCALDESAAALTRM [A17S]	2.16
EVLRRLTSSVSCALDECAAALTRM [A17C]	2.59
EVLRRLTSSVSCALDETAAALTRM [A17T]	2.13
EVLRRLTSSVSCALDEVAAALTRM [A17V]	2.32
EVLRRLTSSVSCALDEYAAALTRM [A17Y]	2.49
EVLRRLTSSVSCALDEFAAALTRM [A17F]	2.03
EVLRRLTSSVSCALDEIAAALTRM [A17I]	2.26
EVLRRLTSSVSCALQEAAAALTRM [D15Q]	1.87
EVLRRLTSSVSCALHEAAAALTRM [D15H]	1.97
EVLRRLTSSVSCALGEAAAALTRM [D15G]	1.26
EVLRRLTSSVSCALAEAAAALTRM [D15A]	1.35
EVLRRLTSSVSCALNEAAAALTRM [D15N]	3.18
EVLRRLTSSVSCALEEAAAALTRM [D15E]	2.2
EVLRRLTSSVSCALCEAAAALTRM [D15C]	1.99
EVLRRLTSSVSCALREAAAALTRM [D15R]	1.85
EVLRRLTSSVSCALMEAAAALTRM [D15M]	3.36
EVLRRLTSSVSCALPEAAAALTRM [D15P]	2.37
EVLRRLTSSPSCALDEAAAALTRM [V10P]	1.29
EVLRRLTSSYSCALDEAAAALTRM [V10Y]	1.65
EVLRRLTSSSSCALDEAAAALTRM [V10S]	1.83
EVLRRLTSSISCALDEAAAALTRM [V10I]	2.13
EVLRRLTSSLSCALDEAAAALTRM [V10L]	2.21
EVLRRLTSSNSCALDEAAAALTRM [V10N]	1.94
EVLRRLTSSDSCALDEAAAALTRM [V10D]	3.61

Variant	protein stability index
EVLRRLTSSWSCALDEAAAALTRM [V10W]	1.4
EVLRRLTSSKSCALDEAAAALTRM [V10K]	2.15
EVLRRLTSSHSCALDEAAAALTRM [V10H]	1.74
EVLRRLTSSRSCALDEAAAALTRM [V10R]	1.07
EVLRRLTSSASCALDEAAAALTRM [V10A]	3.08
EVLRRLTSSGSCALDEAAAALTRM [V10G]	1.1
EVLRRLTSSCSCALDEAAAALTRM [V10C]	1.98
EVLRRLTSSTSCALDEAAAALTRM [V10T]	1.3
EVLRRLTSSESCALDEAAAALTRM [V10E]	1.81
EVLRRLTSSVSCALDEAAHALTRM [A19H]	1.78
EVLRRLTSSVSCALDEAATALTRM [A19T]	2.29
EVLRRLTSSVSCALDEAALALTRM [A19L]	2.35
EVLRRLTSSVSCALDEAAKALTRM [A19K]	2.6
EVLRRLTSSVSCALDEAASALTRM [A19S]	2.16
EVLRRLTSSVSCALDEAAFALTRM [A19F]	3.41
EVLRRLTSSVSCALDEAADALTRM [A19D]	1.83
EVLRRLTSSVSCALDEAAPALTRM [A19P]	2.25
EVLRRLTSSVSCALDEAAIALTRM [A19I]	1.88
EVLRRLTSSVSCALDEAAVALTRM [A19V]	2.99
EVLRRLTSSVSCALDEAAGALTRM [A19G]	2.3
EVLRRLTSSVSCALDEAANALTRM [A19N]	2.55
EVLRRLTSSVSCALDEAAEALTRM [A19E]	2.12
EVLRRLTSSVSCALDEAAYALTRM [A19Y]	2.92
EVLRRLTWSVSCALDEAAAALTRM [S8W]	3.21

Variant	protein stability index
EVLRRLTTSVSCALDEAAAALTRM [S8T]	3
EVLRRLTPSVSCALDEAAAALTRM [S8P]	1.73
EVLRRLTRSVSCALDEAAAALTRM [S8R]	2.21
EVLRRLTVSVSCALDEAAAALTRM [S8V]	2.27
EVLRRLTQSVSCALDEAAAALTRM [S8Q]	1.41
EVLRRLTNSVSCALDEAAAALTRM [S8N]	2.49
EVLRRLTYSVSCALDEAAAALTRM [S8Y]	1.99
EVLRRLTSSVVCALDEAAAALTRM [S11V]	1.35
EVLRRLTSSVICALDEAAAALTRM [S11I]	2.1
EVLRRLTSSVTCALDEAAAALTRM [S11T]	2.42
EVLRRLTSSVQCALDEAAAALTRM [S11Q]	1.18
EVLRRLTSSVDCALDEAAAALTRM [S11D]	2.18
EVLRRLTSSVNCALDEAAAALTRM [S11N]	2.65
EVLRRLTSSVGCALDEAAAALTRM [S11G]	1.03
EVLRRLTSSVACALDEAAAALTRM [S11A]	1.43
EVLRRLTSSVPCALDEAAAALTRM [S11P]	2.79
EVLRRLTSSVYCALDEAAAALTRM [S11Y]	2.26
EVLRRLTSSVMCALDEAAAALTRM [S11M]	2.22
EVLRRLTSSVFCALDEAAAALTRM [S11F]	1.12
EVLRRLTSSVECALDEAAAALTRM [S11E]	1.92
EVLRRLTSSVSCALDEAAAACTRM [L21C]	1.18
EVLRRLTSSVSCALDEAAAADTRM [L21D]	1.53
